Consider two molecules from patent publication US11549124B2 (priority 2017, dated 2023).

The subject of data set [1] is wheat TaPAPhy phytase (EC 3.1.3.26). The experiment in a line: Residual phytase activity after treatment with protease at different phytase:protease ratios. The note with it: phytase: protease ratio of 1:20.
Description: Values are mean of 3 independent technical replicates, and error bars represent means+±sd of replicates.
Data set [2] relates to phytases in crude extract from F. culmorum 8984. It is filed as biochemical.
Data set [3] addresses Aspergillus ficuum phytase (Aspergillus niger, UniProt P34752).
In the next data set the test system is F. graminearum JCM9873. The class given is cell-based.
Data set [4] has as its system phytases in crude extract from F. graminearum 7775. The class given is biochemical.
Data set [5] has as its system TRI4, TRI5, TRI6 genes of F. graminearum JCM9873. The class given is cell-based.

Aspergillus ficuum phytase, sequence (P34752 24-467): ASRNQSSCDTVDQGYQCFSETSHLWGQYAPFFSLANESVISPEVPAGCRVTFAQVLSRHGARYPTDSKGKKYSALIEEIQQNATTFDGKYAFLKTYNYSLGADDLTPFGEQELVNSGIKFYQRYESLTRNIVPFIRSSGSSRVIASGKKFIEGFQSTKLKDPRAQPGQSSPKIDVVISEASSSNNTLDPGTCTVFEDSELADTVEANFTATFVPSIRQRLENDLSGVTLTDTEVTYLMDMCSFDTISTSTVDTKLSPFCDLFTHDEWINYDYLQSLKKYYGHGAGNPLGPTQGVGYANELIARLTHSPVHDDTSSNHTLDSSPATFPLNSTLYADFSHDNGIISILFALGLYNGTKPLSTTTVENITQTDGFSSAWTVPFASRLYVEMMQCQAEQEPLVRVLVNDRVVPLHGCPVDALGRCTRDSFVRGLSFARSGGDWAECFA

Regarding pepsin, the “phytase activity after exposure to protease” value in data set [1] was “unaffected”.

B1: HvNEP-1 (protein)
chain: MAMAIMNTLQCILFLMALIMTHQIPRATADADTPKVAMASSGAGSSFRLAAHHDHALSRSDDGFLHVQSRLDNLLPSEANVTTLRPPVASPLDMAFSVVVGLGSGKGRHDYNLKLDASGSLTWVQCKPCNPKQPQRGPLFDPKASSTFQQVAGTSQICHPPYPMEPAGQQCAFHLSGMGGMSVHGYVAMENLTMGPEAMKEFVFGCSHSTGHFNSHGTFAGVAAMGKMPTSLVMQVAARGQTRFSYCLFSGGASRHGFLRFGADVPSRSGLRTTKILPALDAHESQYYVSLVGISLDAKRLTGVRPEMFARQRGGEGGCVVDPGTPLTVLVREAYRVVEDAVWSDLRRNKAERVQREGYGLCVRKTAEIKRHLQSLSLHFAEETARLVVKPEQLFVAVESRLHGAALCLAMRPGERTVIGALQQVDTRFVYDLKDAKLSFASEPCSQDTAGVD
modifications: Hordeum vulgare
As for B1, the “inhibition of phytases in crude extract” value in data set [2] was “strongly inhibited”. Also, the “pH of peak activity for inhibiting A. ficuum phytase” value in data set [3] (5 μg HvNEP-1, 2.5 U/ml phytase, 2 mM sodium phytate, 1 h, 37° C., pH 2.0 to 8.0) is on record as 5.0. Moreover, the “temperature of peak activity for inhibiting A. ficuum phytase” value in data set [3] (100 mM acetate buffer pH 5.0, 1 h) is 40 °C. For the same molecule, in the data set on F. graminearum JCM9873, the “15-ADON production by F. graminearum” value was “not detectable”, the “growth (biomass accumulation) of fungal culture” value is listed as “strongly inhibited” and the “toxin production of fungal culture” value was “strongly inhibited”. In addition, the “inhibition of phytases in crude extract” value in data set [4] was “strongly inhibited”. Further, in data set [5], the “expression of TRI4 gene” value was “suppressed”, the “expression of TRI5 gene” value was “suppressed” and the “expression of TRI6 gene” value was “suppressed”.
